Source: article doi:10.1101/2024.04.25.591137 (bioRxiv, 2024)

Target: the molecule itself
Assay: negative-stain TEM of fibrils

Protein	binding result
Ac-LVKPSFYVYSRVKNLNSSRV-NH2 [LV20, 20-residue SARS-CoV-2 envelope protein peptide LVKPSFYVYSRVKNLNSSRV]	binds
Ac-SFYVYSRVK-NH2 [SK9, SARS-CoV-2 envelope protein peptide SFYVYSRVK]	binds
